What was measured:
[1] = biological target: DENV1 WestPac74 strain recombinant E protein ectodomain (residues 1-394) (dengue virus serotype 1, strain WestPac 74); experiment: dynamic light scattering; recombinant E proteins in 20 mM Tris pH 8.0, 200 mM NaCl, 0.025% Tween-20
[2] = biological target: DENV1 PVP159 strain recombinant E protein ectodomain (residues 1-394) (dengue virus serotype 1, strain PVP159); experiment: as above
[3] = biological target: human monoclonal antibody (HMAb) 1C19, IgG (human); experiment: BLI
human monoclonal antibody (HMAb) 1C19, IgG (human), sequence (heavy, as listed by the source, chain 1 of 2): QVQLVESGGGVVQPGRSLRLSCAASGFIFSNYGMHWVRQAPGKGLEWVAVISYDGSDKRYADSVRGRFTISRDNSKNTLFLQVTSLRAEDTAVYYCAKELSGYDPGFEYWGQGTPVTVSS
human monoclonal antibody (HMAb) 1C19, IgG (human), sequence (light, as listed by the source, chain 2 of 2): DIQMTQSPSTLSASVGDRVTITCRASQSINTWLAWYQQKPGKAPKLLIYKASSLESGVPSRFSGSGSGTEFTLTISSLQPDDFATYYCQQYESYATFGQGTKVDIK

[4] = biological target: DENV2 NGC strain recombinant E protein ectodomain (residues 1-394) (dengue virus serotype 2, strain NGC); experiment: dynamic light scattering; recombinant E proteins in 20 mM Tris pH 8.0, 200 mM NaCl, 0.025% Tween-20
[5] = biological target: E protein on DENV1 strain WestPac 74 virus particles (dengue virus serotype 1, strain WestPac 74); experiment: cryo-EM structure
[6] = biological target: DENV2 PVP94/07 strain recombinant E protein ectodomain (residues 1-394) (dengue virus serotype 2, strain PVP94/07); experiment: dynamic light scattering; recombinant E proteins in 20 mM Tris pH 8.0, 200 mM NaCl, 0.025% Tween-20

## DENV1 WestPac74 strain recombinant E protein ectodomain (residues 1-394) (domain or fragment)
[1]
  stoichiometry N: 2

## DENV1 PVP159 strain recombinant E protein ectodomain (residues 1-394) (domain or fragment)
[2]
  stoichiometry N: 2
[3]
  Kd: 0.712 nM

## DENV2 NGC strain recombinant E protein ectodomain (residues 1-394) (domain or fragment)
[4]
  stoichiometry N: 2

## Fab 1C19
[5]
  copies of Fab bound per virus particle (180 E proteins), Class I: 60 copies
  copies of Fab bound per virus particle (180 E proteins), Class II: 60 copies

## DENV2 PVP94/07 strain recombinant E protein ectodomain (residues 1-394) (domain or fragment)
[6]
  stoichiometry N: 2
